PMC7337065
Where “and” joins values, the source holds several entries; their conditions need not be identical. Equal values may be shown once.

What was measured:
P02787 = assay: SAXS; concentration series at pH 4.0-8.0 and with NaCl or arginine at pH 5.0/6.5; estimated MW from scattering; volume fractions from OLIGOMER with monomer crystal structures and a SASREFMX dimer model; details: other: SAXS
[1] = molecular target: Recombinant human transferrin (human) (UniProt P02787); assay: SEC-MALS; Superdex 200 Increase 10/30 GL, 4 °C, mobile phase 38 mM NaH2PO4, 12 mM Na2HPO4, 150 mM NaCl, 200 ppm NaN3, pH 7.4; samples from all tested formulation conditions

Sequence of Recombinant human transferrin (P02787 20-698): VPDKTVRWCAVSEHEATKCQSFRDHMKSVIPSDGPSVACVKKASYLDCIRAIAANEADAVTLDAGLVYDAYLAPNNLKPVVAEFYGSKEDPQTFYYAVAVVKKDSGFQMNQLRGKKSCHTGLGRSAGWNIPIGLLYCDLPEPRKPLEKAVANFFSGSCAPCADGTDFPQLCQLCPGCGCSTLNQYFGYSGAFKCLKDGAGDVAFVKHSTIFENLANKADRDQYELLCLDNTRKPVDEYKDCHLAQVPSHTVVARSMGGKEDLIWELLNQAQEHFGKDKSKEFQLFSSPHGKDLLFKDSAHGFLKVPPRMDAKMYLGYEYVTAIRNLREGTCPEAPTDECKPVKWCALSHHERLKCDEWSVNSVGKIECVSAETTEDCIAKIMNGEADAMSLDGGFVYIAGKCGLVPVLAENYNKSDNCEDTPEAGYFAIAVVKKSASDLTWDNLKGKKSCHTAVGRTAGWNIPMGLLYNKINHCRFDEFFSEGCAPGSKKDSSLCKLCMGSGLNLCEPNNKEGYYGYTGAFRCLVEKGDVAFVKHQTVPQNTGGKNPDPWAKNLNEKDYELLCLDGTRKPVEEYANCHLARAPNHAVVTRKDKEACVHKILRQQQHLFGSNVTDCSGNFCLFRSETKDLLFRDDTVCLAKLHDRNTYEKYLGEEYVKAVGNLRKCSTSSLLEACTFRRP

Substance	volume fraction of dimer + aggregates (NaCl) (P02787)	volume fraction of dimer + aggregates (acetate) (P02787)	volume fraction of dimer + aggregates (arginine) (P02787)	volume fraction of dimer + aggregates (histidine) (P02787)	percent dimer [1] [%]	percent trimer [1] [%]	stoichiometry N [1]
Recombinant human transferrin	0.5	0.2	0.4	0.2			
Recombinant human transferrin (from UniProt P02787 20-698) (natural protein)					12	2	2 and 3
